Our source for the Kd values is the Immune Epitope Database (IEDB).

As usually defined, the Kd is the concentration at which binding is half-saturated.

One assay deals with HLA-B*15:03. As to the kind of experiment: IEDB peptide-MHC binding, purified MHC/competitive/radioactivity; filed as Kd, often an IC50 or EC50 that approximates it; ≥ and ≤ were set here for values at or beyond the usual limits of such assays. As to conditions: source organism: Vaccinia virus WR.
A further assay has as its target HLA-A*31:01. As to the kind of experiment: IEDB peptide-MHC binding, purified MHC/direct/fluorescence; filed as Kd, often an IC50 or EC50 that approximates it; ≥ and ≤ were set here for values at or beyond the usual limits of such assays.
Another assay has as its target HLA-A*03:01. The description is as above.
A further assay has as its target HLA-B*58:01. The description is as above.
The target of the next assay is HLA-A*26:01. Described as above.
The target of assay [1] is HLA-A*30:01. The assay is described as above. As to conditions: source organism: Salmonella enterica subsp. enterica serovar Typhi.
For a further assay, the target named is HLA-B*40:01. The assay is described as above.
In the next assay the target is HLA-A*02:01. The description is as above.
For a further assay, the target named is HLA-A*01:01. Described as above.
Assay [2] concerns the target HLA-B*08:01. Described as above.
The target of assay [3] is HLA-B*35:01. The assay is described as above.
A further assay has as its target HLA-A*69:01. The description is as above.
The next assay addresses HLA-A*24:03. The assay is described as above.
The target in assay [4] is HLA-B*15:01. The assay is described as above.
The target of the next assay is HLA-A*11:01. The description is as above.
For assay [5], the target named is HLA-B*27:05. Described as above.
Assay [6] concerns the target HLA-B*27:05. As to the kind of experiment: IEDB peptide-MHC binding, purified MHC/competitive/fluorescence; filed as Kd, often an IC50 or EC50 that approximates it; ≥ and ≤ were set here for values at or beyond the usual limits of such assays.
In a further assay the target is HLA-B*44:02. In words: IEDB peptide-MHC binding, purified MHC/direct/fluorescence; filed as Kd, often an IC50 or EC50 that approximates it; ≥ and ≤ were set here for values at or beyond the usual limits of such assays.
Assay [7] deals with HLA-B*07:02. The description is as above.
The target of assay [8] is HLA-A*30:01. As to the kind of experiment: IEDB peptide-MHC binding, purified MHC/competitive/radioactivity; filed as Kd, often an IC50 or EC50 that approximates it; ≥ and ≤ were set here for values at or beyond the usual limits of such assays. As to conditions: source organism: Vaccinia virus WR.
A further assay addresses HLA-A*32:01. The assay is described as above. As to conditions: source organism: Vaccinia virus WR.
Assay [9] deals with HLA-B*08:01. The description is as above. As to conditions: source organism: Vaccinia virus WR.
Assay [10] deals with HLA-B*15:01. The assay is described as above. As to conditions: source organism: Vaccinia virus WR.
The target in the next assay is HLA-B*83:01. In words: IEDB peptide-MHC binding, purified MHC/competitive/fluorescence; filed as Kd, often an IC50 or EC50 that approximates it; ≥ and ≤ were set here for values at or beyond the usual limits of such assays. As to conditions: source organism: Yersinia pestis Nepal516.
A further assay has as its target HLA-B*51:01. Described as above. As to conditions: source organism: Yersinia pestis Nepal516.
Another assay has as its target HLA-B*15:42. The assay is described as above. As to conditions: source organism: Yersinia pestis Nepal516.
The target in assay [11] is HLA-B*07:02. The description is as above.
Another assay has as its target HLA-B*45:06. The description is as above. As to conditions: source organism: Yersinia pestis Nepal516.
The target in assay [12] is HLA-B*35:01. Described as above. As to conditions: source organism: Yersinia pestis Nepal516.
Setting [13] is: source organism: Salmonella enterica.
Where [14] appears, read: source organism: Salmonella enterica subsp. enterica serovar Typhi.
[15] abbreviates: source organism: Vibrio parahaemolyticus.
[16] abbreviates: source organism: Giardia lamblia ATCC 50803.
The mark [17] stands for this setting: source organism: Vibrio vulnificus.
Setting [18] is: source organism: Brucella abortus 2308.
Where [19] appears, read: source organism: Brucella melitensis.

Bounds are passed on as bounds.

Regarding FAAVEGIFF, in the assay with HLA-B*15:03, the dissociation constant Kd turned out to be 309 nM.
Take EHFYWGSVF: the Kd with HLA-A*31:01 (setting [13]) is ≥ 20 µM; with HLA-A*03:01 (setting [13]) it was ≥ 20 µM; with HLA-B*58:01 (setting [13]) it was ≥ 20 µM; in the assay with HLA-A*26:01 (setting [13]), ≥ 20 µM; in the assay with HLA-A*30:01 [1] it was 19.2 µM; with HLA-B*40:01 (setting [13]), ≥ 20 µM. Moreover, the dissociation constant (Kd) with HLA-A*02:01 (setting [13]) is ≥ 20 µM; with HLA-A*01:01 (setting [13]), ≥ 20 µM; with HLA-B*08:01 [2] (setting [13]) it was ≥ 20 µM; with HLA-B*35:01 [3] (setting [14]) it was 427 nM; in the assay with HLA-A*69:01 (setting [13]), ≥ 20 µM; with HLA-A*24:03 (setting [14]) it was 318 nM. Moreover, the Kd with HLA-B*15:01 [4] (setting [14]) was 1890 nM; with HLA-A*11:01 (setting [14]), 7.98 µM; with HLA-B*27:05 [5] (setting [13]), ≥ 20000 nM.
On to YRLFKHGLK, for which the Kd with HLA-B*27:05 [6] (source organism: Influenza A virus (A/Memphis/1/1978(H1N1))) was found to be 217 nM.
Take ILVNQYSHM: the dissociation constant Kd with HLA-B*15:03 was determined as 37.4 nM.
ALVITINYF: in the assay with HLA-B*15:03, the Kd was determined as 666 nM.
On to YREAGIPVL, for which the Kd with HLA-A*31:01 (setting [15]), with HLA-A*03:01 (setting [15]), with HLA-B*58:01 (setting [15]), in the assay with HLA-A*26:01 (setting [15]), with HLA-B*44:02 (setting [15]) and in the assay with HLA-B*40:01 (setting [15]) was ≥ 20 µM each time. The dissociation constant (Kd) with HLA-A*02:01 (setting [15]) is ≥ 20 µM; with HLA-B*07:02 [7] (setting [15]), ≥ 20 µM; in the assay with HLA-A*01:01 (setting [15]) it was ≥ 20 µM; in the assay with HLA-B*08:01 [2] (setting [15]), ≥ 20 µM; with HLA-B*35:01 [3] (setting [15]), 1000 nM; in the assay with HLA-A*69:01 (setting [15]) it was ≥ 20 µM. Moreover, the results for the equilibrium dissociation constant (Kd) with HLA-B*15:01 [4] (setting [15]), with HLA-A*11:01 (setting [15]) and with HLA-B*27:05 [5] (setting [15]) were ≥ 20000 nM, ≥ 20 µM and 654 nM, respectively.
Turning to TSNWTGNYF, the dissociation constant (Kd) in the assay with HLA-A*30:01 [8] stood at 2270 nM; with HLA-B*15:03 it was 894 nM; with HLA-A*32:01, 11400 nM; with HLA-B*08:01 [9] it was 15.6 µM; with HLA-B*15:01 [10], 7730 nM.
As to MPAIFFSIV, the Kd in the assay with HLA-B*83:01 is 642 nM; in the assay with HLA-B*51:01 it was 1320 nM; in the assay with HLA-B*15:42 it was ≥ 5 µM; with HLA-B*07:02 [11] (source organism: Yersinia pestis Nepal516) it was 84.1 nM; with HLA-B*45:06, ≥ 5 µM; in the assay with HLA-B*35:01 [12] it was 1.2 nM.
On to GRVTVSTKR, for which the Kd in the assay with HLA-B*27:05 [6] (source organism: Influenza A virus) turned out to be 553 nM.
For the sequence YQYGDNLIL, the equilibrium dissociation constant (Kd) with HLA-A*31:01 (setting [16]) was ≥ 20 µM; in the assay with HLA-A*03:01 (setting [16]), ≥ 20 µM; with HLA-B*58:01 (setting [16]) it was ≥ 20 µM; with HLA-A*26:01 (setting [16]) it was ≥ 20 µM; with HLA-B*44:02 (setting [16]), ≥ 20 µM; with HLA-B*40:01 (setting [16]), 0.0777 µM. For the same sequence, the Kd with HLA-A*02:01 (setting [16]) was 0.0221 µM; with HLA-B*07:02 [7] (setting [16]) it was ≥ 20 µM; in the assay with HLA-A*01:01 (setting [16]), ≥ 20 µM; in the assay with HLA-B*08:01 [2] (setting [16]), ≥ 20 µM; in the assay with HLA-B*35:01 [3] (setting [16]), 410 nM; in the assay with HLA-A*69:01 (setting [16]), ≥ 20 µM. For the same sequence, the Kd in the assay with HLA-B*15:01 [4] (setting [16]) was 89.2 nM; with HLA-A*11:01 (setting [16]), ≥ 20 µM; in the assay with HLA-B*27:05 [5] (setting [16]), 430 nM.
In the assay with HLA-B*07:02 [11] (source organism: Influenza A virus (A/parakeet/Narita/92A/98(H9N2))), LPACVYGLAV showed a Kd of 39.4 nM.
For AKTSTLIFF, the Kd in the assay with HLA-B*15:03 was 1.56 nM.
ILAPNPNRF: in the assay with HLA-B*15:03, the Kd amounted to 26.1 nM.
Consider EEVWRDPYL, for which the dissociation constant (Kd) with HLA-A*31:01 (setting [17]), with HLA-A*03:01 (setting [17]), with HLA-B*58:01 (setting [17]), in the assay with HLA-A*26:01 (setting [17]), with HLA-A*02:01 (setting [17]) and with HLA-B*07:02 [7] (setting [17]) was ≥ 20 µM throughout. The equilibrium dissociation constant (Kd) with HLA-A*01:01 (setting [17]) is ≥ 20 µM; with HLA-B*08:01 [2] (setting [17]), ≥ 20 µM; with HLA-B*35:01 [3] (setting [17]), 23.9 nM; with HLA-A*69:01 (setting [17]), ≥ 20 µM; with HLA-B*15:01 [4] (setting [17]), ≥ 20000 nM; with HLA-A*11:01 (setting [17]), ≥ 20 µM. Also, the dissociation constant (Kd) in the assay with HLA-B*27:05 [5] (setting [17]) was ≥ 20000 nM.
For YQNHGFVSF, the dissociation constant Kd was determined as 2.43 nM with HLA-B*15:03, 358 nM with HLA-A*32:01 and 0.173 nM with HLA-B*15:01 [10].
With TPPVDRMAV, the Kd in the assay with HLA-A*31:01 (setting [18]), with HLA-A*03:01 (setting [18]), with HLA-B*58:01 (setting [18]), with HLA-A*26:01 (setting [18]), with HLA-B*44:02 (setting [18]) and with HLA-B*40:01 (setting [18]) was ≥ 20 µM throughout. For the same sequence, the Kd with HLA-A*02:01 (setting [18]) was ≥ 20 µM; with HLA-B*07:02 [7] (setting [19]) it was 0.288 µM; in the assay with HLA-A*01:01 (setting [18]) it was ≥ 20 µM; in the assay with HLA-B*08:01 [2] (setting [19]), 9.04 µM; with HLA-B*35:01 [3] (setting [19]), 1070 nM; with HLA-A*69:01 (setting [18]), ≥ 20 µM. Besides, the Kd with HLA-A*24:03 (setting [18]) is ≥ 20000 nM; with HLA-A*11:01 (setting [18]), ≥ 20 µM; with HLA-B*27:05 [5] (setting [18]), ≥ 20000 nM.
On to KIYNVTNPF, for which the dissociation constant (Kd) with HLA-B*15:03 turned out to be 7.54 nM; with HLA-A*32:01, 4.25 nM; with HLA-B*15:01 [10], 2.72 nM.
